Results taken from article PMC2996049 (Structure (London, England : 1993), 2010).

Target: the molecule itself
Assay: SEC

B1: Full-length His6-tagged NrpR from Methanococcus maripaludis (MmNrpR) (natural protein, UniProt Q6LZL7 1-536, looked up)
chain: MDSNIDVEILSILSEASAPVGAKIIADSLKDRGYDIGERAVRYHLKVLDENSLTKKLGYSGREITEKGIEELEKANISFRIGSVFSQVIEKLYLSDFPSKVLINTAKFEGDYKTIKEMVLRSFEAGYSVGDYLNIKKKGNTVSVETLCSITFDNFLLKNGIIPTPEYGGIVKFEDYEPVNFEGVIDFKSSSIDPLVAFIMQGKTDVIGVIENGEGLVPANFRVIPKSSEKQFETILKKDMLNSVLAYGTENVLGMNLNPEQIGVVLVGGLTPLCVPHESGYTADISAATQLKDISSMEKKTKGFLEAKKKKGKFKVTPVLSKMLSKMQTINYDIEDKKGNVVVNTAKIPIEYKEEAINALKDSYENKLAISDRLKVECDDKFLNAYTICSLTVDGVFLKNKIPVIPYYGGILEVKADKKRFIEAIDYEGTSLDPHEVFFNKADGKNYILAGIRKVPMSASEKLIELNEKLGWNSIIEIGRPNNDICGVRVEKCMFGITTIGGTNPFANIRKNNIPVEMKTLHKSIDYSELTHYDDI
  stoichiometry N: 2
